Laboratory results published in patent US20020115606A1 (MYRIAD GENETICS, published 2002).

T1: PN7740 amino acids 27-322 (yeast; human, UniProt P04386 768-881)
T1 construct: also called novel phosphatase
T1 sequence: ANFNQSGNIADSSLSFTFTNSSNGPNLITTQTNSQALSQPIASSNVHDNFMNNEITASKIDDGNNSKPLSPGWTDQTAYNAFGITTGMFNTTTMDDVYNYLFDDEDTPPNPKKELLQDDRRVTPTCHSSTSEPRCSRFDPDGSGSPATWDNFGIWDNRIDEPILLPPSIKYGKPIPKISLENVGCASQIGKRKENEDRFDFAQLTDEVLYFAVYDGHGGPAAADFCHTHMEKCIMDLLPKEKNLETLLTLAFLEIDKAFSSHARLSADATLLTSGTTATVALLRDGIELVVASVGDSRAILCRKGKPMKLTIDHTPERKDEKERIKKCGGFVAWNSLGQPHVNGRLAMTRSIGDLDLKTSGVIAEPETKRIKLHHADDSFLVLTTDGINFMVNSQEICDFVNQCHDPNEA

B1: stearoyl CoA desaturase (SCD2) amino acids 320-359 (other)
chain: ANFNQSGNIADSSLSFTFTNSSNGPNLITTQTNSQALSQPIASSNVHDNFMNNEITASKIDDGNNSKPLSPGWTDQTAYNAFGITTGMFNTTTMDDVYNYLFDDEDTPPNPKKETTFFIDCMAALGLAYDRKKVSKAAILARIKRTGDGNYKSG
notes: range 768-881;range 320-359; also called Delta(9) desaturase
B2: KIAA0427 amino acids 364-589 (other, yeast;human, UniProt P04386 768-881, looked up, not shown: small tags and cut ends)
chain: ANFNQSGNIADSSLSFTFTNSSNGPNLITTQTNSQALSQPIASSNVHDNFMNNEITASKIDDGNNSKPLSPGWTDQTAYNAFGITTGMFNTTTMDDVYNYLFDDEDTPPNPKKETTTPQQNKMDKLIEILNSMRNNSSDVDTKLTTFMEEAQNSTNSEEMLGEIVRTIYQKAVSDRSFAFTAAKLCDKMALFMVEGTKFRSLLLNMLQKDFTVREELQQQDVERWLGFITFLCEVFGTMRSSTGEPFRVLVCPIYTCLRELLQSQDVKEDAVLCCSMELQSTGRLLEEQLPEMMTELLASARDKMLCPSESMLTRSLLLEVIELHANSWNPLTPPITQYY
B3: Fe65 amino acids 360-552 (first phosphotyrosine binding domain, PTB) (other, UniProt P04386 1-147, looked up)
chain: MKLLSSIEQACDICRLKKLKCSKEKPKCAKCLKNNWECRYSPKTKRSPLTRAHLTEVESRLERLEQLFLLIFPREDLDMILKMDSLQDIKALLTGLFVQDNVNKDAVTDRLASVETDMPLTLRQHRISATSSSEESSNKGQRQLTVSPRNTNPGIKCFAVRSLGWVEMTEEELAPGRSSVAVNNCIRQLSYHKNNLHDPMSGGWGEGKDLLLQLEDETLKLVEPQSQALLHAQPIISIRVWGVGRDSGRERDFAYVARDKLTQMLKCHVFRCEAPAKNIATSLHEICSKIMAERRNARCLVNGLSLDHSKLVDVPFQVEFPAPKNELVQKFQVYYLGNVP
B4: glutathione-S-transferase M3 (GST trans. M3) amino acids 15-226 (other, yeast;human, UniProt P04386 768-881, looked up, not shown: small tags and cut ends)
chain: ANFNQSGNIADSSLSFTFTNSSNGPNLITTQTNSQALSQPIASSNVHDNFMNNEITASKIDDGNNSKPLSPGWTDQTAYNAFGITTGMFNTTTMDDVYNYLFDDEDTPPNPKKERGLAHAIRLLLEFTDTSYEEKRYTCGEAPDYDRSQWLDVKFKLDLDFPNLPYLLDGKNKITQSNAILRYIARKHNMCGETEEEKIRVDIIENQVMDFRTQLIRLCYSSDHEKLKPQYLEELPGQLKQFSMFLGKFSWFAGEKLTFVDFLTYDILDQNRIFDPKCLDEFPNLKAFMCRFEALEKIAAYLQSDQFCKMPINNKMAQWGNKPVC
B5: Mint1 amino acids 739-837 (other, UniProt P04386 1-147, looked up)
chain: MKLLSSIEQACDICRLKKLKCSKEKPKCAKCLKNNWECRYSPKTKRSPLTRAHLTEVESRLERLEQLFLLIFPREDLDMILKMDSLQDIKALLTGLFVQDNVNKDAVTDRLASVETDMPLTLRQHRISATSSSEESSNKGQRQLTVSIVRCPPVTTVLIRRPDLRYQLGFSVQNGIICSLMRGGIAERGGVRVGHRIIEINGQSVVATPHEKIVHILSNAVGEIHMKTMPAAMYRLLTAQEQPVYI
notes: also called X11 alpha
B6: CIB amino acids 1-191 (other, UniProt P04386 1-147, looked up)
chain: MKLLSSIEQACDICRLKKLKCSKEKPKCAKCLKNNWECRYSPKTKRSPLTRAHLTEVESRLERLEQLFLLIFPREDLDMILKMDSLQDIKALLTGLFVQDNVNKDAVTDRLASVETDMPLTLRQHRISATSSSEESSNKGQRQLTVSMGGSGSRLSKELLAEYQDLTFLTKQEILLAHRRFCELLPQEQRSVESSLRAQVPFEQILSLPELKANPFKERICRVFSTSPAKDSLSFEDFLDLLSVFSDTATPDIKSHYAFRIFDFDDDGTLNREDLSRLVNCLTGEGEDTRLSASEMKQLIDNILEESDIDRDGTINLSEFQHVISRSPDFASSFKIVL
B7: casein kinase II (CK2) amino acids 264-351 (other, yeast;human, UniProt P04386 768-881, looked up, not shown: small tags and cut ends)
chain: ANFNQSGNIADSSLSFTFTNSSNGPNLITTQTNSQALSQPIASSNVHDNFMNNEITASKIDDGNNSKPLSPGWTDQTAYNAFGITTGMFNTTTMDDVYNYLFDDEDTPPNPKKEIDLDPHFNDILGQHSRKRWENFIHSENRHLVSPEALDLLDKLLRYDHQQRLTAKEAMEHPYFYPVVKEQSQPCADNAVLSSGLTAAR
B8: Mint2 amino acids 1-210 (other, UniProt P04386 1-147, looked up)
chain: MKLLSSIEQACDICRLKKLKCSKEKPKCAKCLKNNWECRYSPKTKRSPLTRAHLTEVESRLERLEQLFLLIFPREDLDMILKMDSLQDIKALLTGLFVQDNVNKDAVTDRLASVETDMPLTLRQHRISATSSSEESSNKGQRQLTVSMAHRKLESVGSGMLDHRVRPGPVPHSQEPESEDMELPLEGYVPEGLELAALRPESPAPEEQECHNHSPDGDSSSDYVNNTSEEEDYDEGLPEEEEGITYYIRYCPEDDSYLEGMDCNGEEYLAHSAHPVDTDECQEAVEEWTDSAGPHPHGHEAEGSQDYPDGQLPIPEDEPSVLEAHDQEEDGHYCASKEGYQDYYPEEANGNTGASPY
notes: also called X11 beta
B9: SUR1, type-1 sulfonylurea receptor, amino acids 121-270 (other, yeast;human, UniProt P04386 768-881, looked up, not shown: small tags and cut ends)
chain: ANFNQSGNIADSSLSFTFTNSSNGPNLITTQTNSQALSQPIASSNVHDNFMNNEITASKIDDGNNSKPLSPGWTDQTAYNAFGITTGMFNTTTMDDVYNYLFDDEDTPPNPKKEVVYYHNIETSNFPKLLIALLVYWTLAFITKTIKFVKFLDHAIGFSQLRFCLTGLLVILYGMLLLVEVNVIRVRRYIFFKTPREVKPPEDLQDLGVRFLQPFVNLLSKGTYWWMNAFIKTAHKKPIDLRAIGKLPIAMRALTNYQRLCEAF
B10: Presenilin 2 (PS2) amino acids 1-97 (other, UniProt P04386 1-147, looked up)
chain: MKLLSSIEQACDICRLKKLKCSKEKPKCAKCLKNNWECRYSPKTKRSPLTRAHLTEVESRLERLEQLFLLIFPREDLDMILKMDSLQDIKALLTGLFVQDNVNKDAVTDRLASVETDMPLTLRQHRISATSSSEESSNKGQRQLTVSMLTFMASDSEEEVCDERTSLMSAESPTPRSCQEGRQGPEDGENTAQWRSQENEEDGEEDPDRYVCSGVPGRPPGLEEELTLKYGAKHVIMLFVPVTL
notes: also called Presinilin 2
B11: BAT3 (HLA-B associated transcript) amino acids 740-1040 (other, UniProt P04386 1-147, looked up)
chain: MKLLSSIEQACDICRLKKLKCSKEKPKCAKCLKNNWECRYSPKTKRSPLTRAHLTEVESRLERLEQLFLLIFPREDLDMILKMDSLQDIKALLTGLFVQDNVNKDAVTDRLASVETDMPLTLRQHRISATSSSEESSNKGQRQLTVSFEPGADGALGFFGALLSLLCQNFSMVDVVMLLHGHFQPLQRLQPQLRSFFHQHYLGGQEPTPSNIRMATHTLITGLEEYVRESFSLVQVQPGVDIIRTNLEFLQEQFNSIAAHVLHCTDSGFGARLLELCNQGLFECLALNLHCLGGQQMELAAVINGRIRRMSRGVNPSLVSWLTTMMGLRLQVVLEHMPVGPDAILRYVRRVGDPPQPLPEEPMEVQGAERASPEPQRENASPAPGTTAEEAMSRGPPPAPEGGSRDEQDGASAETEPWAAAVPPEWVPIIQQDIQSQRKVKPQPPLSD

What was measured:
[1] = biological target: B6; assay: yeast two-hybrid, Gal4, human brain cDNA library
[2] = biological target: T2, Mint1 amino acids 447-758 (yeast, UniProt P04386 1-147; Q02410 447-758); assay: yeast two-hybrid
T2 construct: also called X11 alpha
Description: (§1) The principles and methods of the yeast two-hybrid systems have been described in detail (Bartel and Fields, 1997). The following is thus a description of the particular procedure that was used, which was applied to all proteins.
(§2) The cDNA encoding the bait protein was generated by PCR from brain cDNA. Gene-specific primers were synthesized with appropriate tails added at their 5′ ends to allow recombination into the vector pGBTQ. The tail for the forward primer was 5′-[…]-3′ (SEQ ID NO: 1) and the tail for the reverse primer was 5′-[…]-3′ (SEQ ID NO:2). […] The new construct was selected directly in the yeast J693 for its ability to drive tryptophane synthesis (genotype of this strain: Mat α, ade2, his3, leu2, trp1, URA3::GAL1-lacZ LYS2::GAL1-HIS3 gal4del gal80del cyhR2). In these yeast cells, the bait is produced as a C-terminal fusion protein with the DNA binding domain of the transcription factor Gal4 (amino acids 1 to 147). A total human brain (person) cDNA library cloned into the yeast expression vector pACT2 was purchased from Clontech (human brain […] cDNA, cat. # HL4004AH), transformed into the yeast strain J692 (genotype of this strain: Mat α, ade2, his3, leu2, trp1, URA3::GAL1-lacZ LYS2::GAL1-HIS3 gal4del gal80del cyhR2), and selected for the ability to drive leucine synthesis. In these yeast cells, each cDNA is expressed as a fusion protein with the transcription activation domain of the transcription factor Gal4 (amino acids 768 to 881) and a 9 amino acid hemagglutinin epitope tag. J693 cells […] expressing the bait were then mated with J692 cells […] expressing proteins from the brain library. The resulting diploid yeast cells expressing proteins interacting with the bait protein were selected for the ability to synthesize tryptophane, leucine, histidine, and β-galactosidase.

[3] = biological target: T1, PN7740 amino acids 27-322; assay: yeast two-hybrid
Description: as §1, §2

[4] = biological target: Focal adhesion kinase (FAK) amino acids 724-1052 (yeast, UniProt P04386 1-147; Q05397 724-1052); assay: yeast two-hybrid
Description: as §1, §2

[5] = biological target: T3, glutamine synthase (GS) amino acids 49-212 (yeast; human, UniProt P04386 768-881; P15104 49-212); assay: yeast two-hybrid
T3 construct: also called glutamine synthetase; glutamate ammonia ligase
Description: as §1, §2

[6] = biological target: T4, mixed lineage kinase 2 (MLK2) amino acids 305-549 (yeast; human, UniProt P04386 768-881; Q02779 305-549); assay: yeast two-hybrid
T4 construct: also called MST; MAP3K10
Description: as §1, §2

[7] = biological target: phosphodiesterase 9A (PDE-9A) amino acids 269-593 (yeast; human, UniProt P04386 768-881; O76083 269-593); assay: yeast two-hybrid
Description: as §1, §2

[8] = biological target: T5, Focal adhesion kinase 2 (FAK2) amino acids 673-866 (yeast, UniProt P04386 1-147; Q14289 673-866); assay: yeast two-hybrid
T5 construct: also called PYK2; CAKβ
Description: as §1, §2

[9] = biological target: glyceraldehyde-3-phosphate dehydrogenase (GAPDH) amino acids 2-190 (yeast; human, UniProt P04386 768-881; P04406 2-190); assay: yeast two-hybrid
Description: as §1, §2

[10] = biological target: transthyretin (TTH) amino acids 7-148 (yeast; human, UniProt P04386 768-881; P02766 7-147); assay: yeast two-hybrid
Description: as §1, §2

Binder: B1
- binding result [1]: binds

Binder: B2
- binding result [2]: binds

Binder: B3
- binding result [3]: binds

Binder: B4
- binding result [4]: binds

Binder: B5
- binding result [5]: binds

Binder: B6
- binding result [6]: binds

Binder: B7
- binding result [4]: binds

Binder: B8
- binding result [7]: binds

Binder: B9
- binding result [8]: binds

Binder: B10
- binding result [9]: binds

Binder: B11
- binding result [10]: binds
